B1: Pistol ribozyme (parent)
chain: GGGUCGUUGUUCCAUAAUCGCGUGGAUAUGGCACGCAAGUUUCUACCGGGCACCGUAAAUGUCCGACUGGAGCCGUUCGGGCGGCUAUAAACAGACCUCAGGCCCGAAGCGUGGCGGCACCUGCCGCCGGUGGUAAAAAAGAUCGGAAGAGCACACGUCU

This is an account of results in the RNAGym collection of RNA variant scans (doi:10.1021/acssynbio.7b00057).

Variants of B1 are the subject of this series. Kind of series: aptazyme ON/OFF ratio, guanine; higher = stronger switching; co-transcriptional cleavage with and without guanine.
Take U7A U8A G9C U10C C12G C13U: the “aptazyme ON/OFF ratio” value came out at 1.06.

Turning to U7A U8A G9U U10A U11A, the “aptazyme ON/OFF ratio” value was 1.44.

For the variant U7A U8A G9U U10A U11C, the “aptazyme ON/OFF ratio” value is 1.08.

In the case of U7A U8A G9C U11A C12G C13A, the “aptazyme ON/OFF ratio” value came out at 1.15.

With U7A U8A G9C U11A C12G C13G, the “aptazyme ON/OFF ratio” value came out at 1.2.

U7A U8A G9C U11A C12G C13U: the “aptazyme ON/OFF ratio” value stood at 1.21.

As for U7A U8A G9C U10G U11G C12A C13U, the “aptazyme ON/OFF ratio” value came out at 1.41.

For the variant U7A U8A G9C U10G U11G C12A C13G, the “aptazyme ON/OFF ratio” value was 1.17.

On to U7A U8A G9C U10G U11G C12A C13A, for which the “aptazyme ON/OFF ratio” value stood at 1.4.

For the variant U7A U8A G9U U10A C12A C13A, the “aptazyme ON/OFF ratio” value worked out at 1.34.

As to U7A U8A G9U U10A C12A C13U, the “aptazyme ON/OFF ratio” value was determined as 1.15.

For U7A U8A G9U U10A C12A C13G, the “aptazyme ON/OFF ratio” value came out at 1.24.

As for U7A U8A G9C U10C U11C C12A C13A, the “aptazyme ON/OFF ratio” value stood at 1.

For the variant U7A U8A G9C U10C U11C C12A C13G, the “aptazyme ON/OFF ratio” value worked out at 1.01.

As for U7A U8A G9C U10C U11C C12A C13U, the “aptazyme ON/OFF ratio” value stood at 1.02.

On to U7A U8A G9U C12A, for which the “aptazyme ON/OFF ratio” value came out at 1.19.

Take U7A U8A G9U C12U: the “aptazyme ON/OFF ratio” value was found to be 1.32.

On to U7A U8A G9U C12G, for which the “aptazyme ON/OFF ratio” value is 1.45.

U7A U8A G9C U10G U11G C12G C13G: the “aptazyme ON/OFF ratio” value came out at 1.13.

For U7A U8A G9C U10G U11G C12G C13U, the “aptazyme ON/OFF ratio” value is 1.21.

Regarding U7A U8A G9C U10G U11G C12G C13A, the “aptazyme ON/OFF ratio” value was 1.2.

For the variant U7A U8A G9A U11G C12A C13G, the “aptazyme ON/OFF ratio” value was 1.11.

Regarding U7A U8A G9A U11G C12A C13U, the “aptazyme ON/OFF ratio” value was found to be 1.09.

U7A U8A G9A U11G C12A C13A: the “aptazyme ON/OFF ratio” value is 1.08.

For the variant U7A U8A G9C U10G U11C C12A C13U, the “aptazyme ON/OFF ratio” value turned out to be 1.23.

Take U7A U8A G9C U10G U11C C12A C13G: the “aptazyme ON/OFF ratio” value amounted to 1.08.

On to U7A U8A G9C U10G U11C C12A C13A, for which the “aptazyme ON/OFF ratio” value amounted to 1.19.

For the variant U7A U8A G9C U10A C13A, the “aptazyme ON/OFF ratio” value worked out at 1.21.

As to U7A U8A G9C U10A C13G, the “aptazyme ON/OFF ratio” value turned out to be 1.07.

As for U7A U8A G9C U10A C13U, the “aptazyme ON/OFF ratio” value was found to be 1.18.

As for U7A U8A G9C U10A U11G C12A, the “aptazyme ON/OFF ratio” value turned out to be 1.05.

Take U7A U8A G9C U10A U11G C12U: the “aptazyme ON/OFF ratio” value is 1.22.

Regarding U7A U8A G9C U10A U11G C12G, the “aptazyme ON/OFF ratio” value worked out at 1.19.

As to U7A U8A G9C U10G U11A C12G, the “aptazyme ON/OFF ratio” value was 1.32.

As for U7A U8A G9C U10G U11A C12U, the “aptazyme ON/OFF ratio” value is 1.03.

As to U7A U8A G9C U10G U11A C12A, the “aptazyme ON/OFF ratio” value turned out to be 1.29.

Consider U7A U8A G9C U10A U11C C12G, for which the “aptazyme ON/OFF ratio” value turned out to be 1.16.

As for U7A U8A G9C U10A U11C C12U, the “aptazyme ON/OFF ratio” value came out at 1.05.

Consider U7A U8A G9C U10A U11C C12A, for which the “aptazyme ON/OFF ratio” value was 1.13.

For the variant U7A U8A G9C U11A, the “aptazyme ON/OFF ratio” value was determined as 1.25.

Regarding U7A U8A G9C U11G, the “aptazyme ON/OFF ratio” value is 1.47.

Regarding U7A U8A G9C U11C, the “aptazyme ON/OFF ratio” value amounted to 1.05.

U7A U8A G9A U11G C12G C13U: the “aptazyme ON/OFF ratio” value was determined as 1.32.

In the case of U7A U8A G9A U11G C12G C13A, the “aptazyme ON/OFF ratio” value stood at 1.16.

On to U7A U8A G9A U11G C12G C13G, for which the “aptazyme ON/OFF ratio” value turned out to be 1.33.

With U7A U8A G9C U10C U11C C12U, the “aptazyme ON/OFF ratio” value is 1.02.

U7A U8A G9C U10C U11C C12G: the “aptazyme ON/OFF ratio” value is 1.05.

U7A U8A G9C U10C U11C C12A: the “aptazyme ON/OFF ratio” value is 1.05.

As for U7A U8A G9C U10C U11C, the “aptazyme ON/OFF ratio” value was 0.984.

Regarding U7A U8A G9C U10C U11A, the “aptazyme ON/OFF ratio” value turned out to be 0.719.

On to U7A U8A G9C U10C U11G, for which the “aptazyme ON/OFF ratio” value is 0.815.

Turning to U7A U8A G9U C12G C13G, the “aptazyme ON/OFF ratio” value was 1.27.

Consider U7A U8A G9U C12G C13A, for which the “aptazyme ON/OFF ratio” value turned out to be 1.19.

U7A U8A G9U C12G C13U: the “aptazyme ON/OFF ratio” value is 1.47.

For U7A U8A G9C U10C U11A C12A C13U, the “aptazyme ON/OFF ratio” value is 1.06.

As for U7A U8A G9C U10C U11A C12A C13A, the “aptazyme ON/OFF ratio” value is 1.02.

For U7A U8A G9C U10C U11A C12A C13G, the “aptazyme ON/OFF ratio” value is 1.03.

As to U7A U8A G9C U11G C12U C13G, the “aptazyme ON/OFF ratio” value amounted to 1.23.

With U7A U8A G9C U11G C12U C13A, the “aptazyme ON/OFF ratio” value was 1.37.

On to U7A U8A G9C U11G C12U C13U, for which the “aptazyme ON/OFF ratio” value was 1.09.

On to U7A U8A G9A U11C C13G, for which the “aptazyme ON/OFF ratio” value amounted to 1.12.

As to U7A U8A G9A U11C C13A, the “aptazyme ON/OFF ratio” value came out at 1.06.

For the variant U7A U8A G9A U11C C13U, the “aptazyme ON/OFF ratio” value came out at 1.1.

For U7A U8A G9C U10C U11C C12U C13A, the “aptazyme ON/OFF ratio” value was found to be 1.01.

For U7A U8A G9C U10C U11C C12U C13U, the “aptazyme ON/OFF ratio” value amounted to 1.05.

In the case of U7A U8A G9C U10C U11C C12U C13G, the “aptazyme ON/OFF ratio” value worked out at 1.02.

As for U7A U8A G9C C13G, the “aptazyme ON/OFF ratio” value worked out at 1.03.

As to U7A U8A G9C C13U, the “aptazyme ON/OFF ratio” value was 1.13.

Consider U7A U8A G9C C13A, for which the “aptazyme ON/OFF ratio” value was found to be 1.15.

Regarding U7A U8A G9C U10A U11C C12G C13U, the “aptazyme ON/OFF ratio” value amounted to 1.27.

Take U7A U8A G9C U10A U11C C12G C13A: the “aptazyme ON/OFF ratio” value came to 1.18.

Regarding U7A U8A G9C U10A U11C C12G C13G, the “aptazyme ON/OFF ratio” value worked out at 1.14.

Turning to U7A U8A G9U U10A C12U C13A, the “aptazyme ON/OFF ratio” value was 1.05.

As for U7A U8A G9U U10A C12U C13G, the “aptazyme ON/OFF ratio” value worked out at 1.23.

U7A U8A G9U U10A C12U C13U: the “aptazyme ON/OFF ratio” value was determined as 1.13.

On to U7A U8A G9C U11A C12U C13U, for which the “aptazyme ON/OFF ratio” value worked out at 1.2.

Consider U7A U8A G9C U11A C12U C13G, for which the “aptazyme ON/OFF ratio” value was found to be 1.14.

As for U7A U8A G9C U11A C12U C13A, the “aptazyme ON/OFF ratio” value is 1.1.

With U7A U8A G9C U10C U11G C13U, the “aptazyme ON/OFF ratio” value turned out to be 1.05.

On to U7A U8A G9C U10C U11G C13G, for which the “aptazyme ON/OFF ratio” value was determined as 1.05.

U7A U8A G9C U10C U11G C13A: the “aptazyme ON/OFF ratio” value came to 1.06.

On to U7A U8A G9C U10A U11A C12A C13U, for which the “aptazyme ON/OFF ratio” value was 1.14.

With U7A U8A G9C U10A U11A C12A C13A, the “aptazyme ON/OFF ratio” value was found to be 1.37.

For the variant U7A U8A G9C U10A U11A C12A C13G, the “aptazyme ON/OFF ratio” value was found to be 1.07.
